Data taken from US20080195324A1.

Biological target: 10-subunit yeast RNA polymerase II (yeast) (UniProt P16370)
Assay: 2.8 Å cocrystal structure; change in solvent-exposed surface of pol II residues, AREAIMOL, probe radius 1.4 Å

**Q.** For α-amanitin (peptide), which Δsurface area (Total) is on record?
**A.** Its Δsurface area (Total) is -541 Å^2.
